Reference: publication PMC11682927

Biological target: His-BACH1-BTB (amino acids 7-128) (human) (UniProt O14867)
Test: SEC-MALS

His-BACH1-BTB (amino acids 7-128) (human), sequence (O14867 7-128): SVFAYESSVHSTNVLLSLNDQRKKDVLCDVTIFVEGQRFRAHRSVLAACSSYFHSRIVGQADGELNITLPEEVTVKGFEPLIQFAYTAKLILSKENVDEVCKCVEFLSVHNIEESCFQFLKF
Tag-free FBXO22-SKP1 complex, sequence (Q8NEZ5 whole entry): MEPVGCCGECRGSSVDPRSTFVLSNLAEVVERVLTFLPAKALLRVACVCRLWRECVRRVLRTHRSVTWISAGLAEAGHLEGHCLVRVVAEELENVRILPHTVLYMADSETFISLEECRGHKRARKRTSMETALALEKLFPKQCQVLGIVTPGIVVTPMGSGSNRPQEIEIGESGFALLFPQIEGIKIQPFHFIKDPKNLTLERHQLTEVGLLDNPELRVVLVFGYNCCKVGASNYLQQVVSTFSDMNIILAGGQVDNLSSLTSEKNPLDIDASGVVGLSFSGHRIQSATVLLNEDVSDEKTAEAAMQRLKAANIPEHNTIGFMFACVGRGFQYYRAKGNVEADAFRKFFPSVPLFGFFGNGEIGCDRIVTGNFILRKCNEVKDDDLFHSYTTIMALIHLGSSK
Tag-free FBXO22-SKP1 complex, sequence (P63208 whole entry): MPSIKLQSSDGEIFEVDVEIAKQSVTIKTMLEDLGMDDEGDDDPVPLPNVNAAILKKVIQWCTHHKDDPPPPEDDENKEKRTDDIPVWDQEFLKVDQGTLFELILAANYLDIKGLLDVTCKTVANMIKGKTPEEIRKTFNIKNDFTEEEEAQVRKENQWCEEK

stoichiometry N (FBXO22-SKP1 per BACH1 BTB dimer): 1
Substance: Tag-free FBXO22-SKP1 complex (from UniProt Q8NEZ5 1-403; P63208 1-163)
